One test deals with T1, S100A1 (Rattus norvegicus, UniProt P35467).
T1 sequence (P35467 2-94 limits assumed): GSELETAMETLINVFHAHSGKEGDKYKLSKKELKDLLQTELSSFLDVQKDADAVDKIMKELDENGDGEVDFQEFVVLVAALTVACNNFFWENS
Conditions: read-out: KD of S100A1 for RyRP12; ref [36]; [47]; cited from earlier work.

In test [1] the target is TRTK12 (CapZ peptide) TRTK12 (Homo sapiens) (UniProt P52907). Conditions: cited from earlier work.
The next test concerns the target RyRP12 RyRP12 (UniProt P21817). Conditions: cited from earlier work.
The target in test [2] is T2, TRTK12 (CapZ alpha subunit peptide) (not fully specified).
T2 chain: Ac-TRTKIDWNKILS-NH2

Test [3] deals with T3, TAMRA-TRTK12 (CapZ alpha subunit peptide) (not fully specified).
T3 chain: {TAMRA}-TRTKIDWNKILS-NH2
Nature of the test: fluorescence anisotropy. On the technique in general: In fluorescence polarisation assays a small probe gives low polarisation when free and higher when bound to something large.

A word on the Kd: it is the free concentration of one partner at which half of the binding sites on the other are occupied at equilibrium, for simple one-to-one binding. KKAVWHKLLSKQ [RyRP12]: the Kd in the test with S100A1 was 8 µM.

As for S100B (from UniProt P04631), the dissociation constant Kd in test [1] was 7 µM.

As for S100A1 (from UniProt P35467), the Kd in the test with RyRP12 RyRP12 is 8 µM.

B1: S100A1 (protein)
chain: MGSELETAMETLINVFHAHSGKEGDKYKLSKKELKDLLQTELSSFLDVQKDADAVDKIMKELDENGDGEVDFQEFVVLVAALTVACNNFFWENS
For B1, the Kd in test [2] came to 23 µM; in test [3] it was 1 µM.
